Patent US20210130437A1 (ALPINE IMMUNE SCIENCES, published 2021)
Positions count from the first letter of the chain named. Names and notes keep the numbering of the source.

T1: human TIGIT expressed on cells (Jurkat/TIGIT cells) (human, UniProt Q495A1 22-244)
T1 sequence: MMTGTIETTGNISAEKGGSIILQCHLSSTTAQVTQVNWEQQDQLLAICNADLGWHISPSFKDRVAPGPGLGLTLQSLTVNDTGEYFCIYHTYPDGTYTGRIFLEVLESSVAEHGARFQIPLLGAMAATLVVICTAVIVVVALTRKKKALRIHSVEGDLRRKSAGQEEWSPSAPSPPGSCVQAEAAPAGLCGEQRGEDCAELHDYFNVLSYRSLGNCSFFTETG

B1: Wild Type PD-L2 full ECD Fc (Fc fusion)
chain: LFTVTVPKELYIIEHGSNVTLECNFDTGSHVNLGAITASLQKVENDTSPHRERATLLEEQLPLGKASFHIPQVQVRDEGQYQCIIIYGVAWDYKYLTLKVKASYRKINTHILKVPETDEVELTCQATGYPLAEVSWPNVSVPANTSHSRTPEGLYQVTSVLRLKPPPGRNFSCVFWNTHVRELTLASIDLQSQMEPRTHPT
notes: not shown: Fc and linker not specified
B2: PD-L2/CD155 Stack 1 (Fc fusion)
chain: WPPPGTGDVVVQAPTQVSGFLGDSVTLPCYLQVPNMEVTHVSQLTWARHGESGSMAVFHQTQGPWYAESKRLEFVAARLGAELRNASLRMFGLRVEDEGNYTCQFVTFPQRSRSVDIWLRVLGGGGSGGGGSEPKSSDKTHTCPPCPAPEAEGAPSVFLFPPKPKDTLMISRTPEVTCVVVDVSHEDPEVKFNWYVDGVEVHNAKTKPREEQYNSTYRVVSVLTVLHQDWLNGKEYKCKVSNKALPAPIEKTISKAKGQPREPQVYTLPPSRDELTKNQVSLTCLVKGFYPSDIAVEWESNGQPENNYKTTPPVLDSDGSFFLYSKLTVDKSRWQQGNVFSCSVMHEALHNHYTQKSLSLSPGKGGGGSGGGGSGGGGSLFTVTVPKELYIIEQGSNVTLECNFDTGSHVNLGAITASLQKVENDASPHRERATLLEEQLPLGRALFHIPQVQVRDEGQYRCIIIYGDAWDYKYLTLKVKA
notes: Homodimer; also called (CD155 IgV)-(G4S)2-Fc-(G4S)3 (PD-L2 IgV)
B3: PD-L2/CD155 Stack 4 (Fc fusion)
chain: LFTVTVPKELYIIEQGSNVTLECNFDTGSHVNLGAITASLQKVENDASPHRERATLLEEQLPLGRALFHIPQVQVRDEGQYRCIIIYGDAWDYKYLTLKVKAGGGGSGGGGSGGGGSWPPPGTGDVVVQAPTQVSGFLGDSVTLPCYLQVPNMEVTHVSQLTWARHGESGSMAVFHQTQGPWYAESKRLEFVAARLGAELRNASLRMFGLRVEDEGNYTCQFVTFPQRSRSVDIWLRVLGGGGSGGGGSEPKSSDKTHTCPPCPAPEAEGAPSVFLFPPKPKDTLMISRTPEVTCVVVDVSHEDPEVKFNWYVDGVEVHNAKTKPREEQYNSTYRVVSVLTVLHQDWLNGKEYKCKVSNKALPAPIEKTISKAKGQPREPQVYTLPPSRDELTKNQVSLTCLVKGFYPSDIAVEWESNGQPENNYKTTPPVLDSDGSFFLYSKLTVDKSRWQQGNVFSCSVMHEALHNHYTQKSLSLSPGK
notes: Homodimer; also called (PD-L2 IgV) (G4S)3 (CD155 IgV) (G4S)2 Fc
B4: PD-L2/CD155 Stack 6 (Fc fusion)
chain: EPKSSDKTHTCPPCPAPEAEGAPSVFLFPPKPKDTLMISRTPEVTCVVVDVSHEDPEVKFNWYVDGVEVHNAKTKPREEQYNSTYRVVSVLTVLHQDWLNGKEYKCKVSNKALPAPIEKTISKAKGQPREPQVYTLPPSRDELTKNQVSLTCLVKGFYPSDIAVEWESNGQPENNYKTTPPVLDSDGSFFLYSKLTVDKSRWQQGNVFSCSVMHEALHNHYTQKSLSLSPGKGGGGSGGGGSGGGGSLFTVTVPKELYIIEQGSNVTLECNFDTGSHVNLGAITASLQKVENDASPHRERATLLEEQLPLGRALFHIPQVQVRDEGQYRCIIIYGDAWDYKYLTLKVKAGGGGSGGGGSGGGGSWPPPGTGDVVVQAPTQVSGFLGDSVTLPCYLQVPNMEVTHVSQLTWARHGESGSMAVFHQTQGPWYAESKRLEFVAARLGAELRNASLRMFGLRVEDEGNYTCQFVTFPQRSRSVDIWLRVL
notes: Homodimer; also called Fc (G4S)3 (PD-L2 IgV) (G4S)3 (CD155 IgV)
B5: PD-L2/CD155 Stack 2 (Fc fusion)
chain: LFTVTVPKELYIIEQGSNVTLECNFDTGSHVNLGAITASLQKVENDASPHRERATLLEEQLPLGRALFHIPQVQVRDEGQYRCIIIYGDAWDYKYLTLKVKAGGGGSGGGGSEPKSSDKTHTCPPCPAPEAEGAPSVFLFPPKPKDTLMISRTPEVTCVVVDVSHEDPEVKFNWYVDGVEVHNAKTKPREEQYNSTYRVVSVLTVLHQDWLNGKEYKCKVSNKALPAPIEKTISKAKGQPREPQVYTLPPSRDELTKNQVSLTCLVKGFYPSDIAVEWESNGQPENNYKTTPPVLDSDGSFFLYSKLTVDKSRWQQGNVFSCSVMHEALHNHYTQKSLSLSPGKGGGGSGGGGSGGGGSWPPPGTGDVVVQAPTQVSGFLGDSVTLPCYLQVPNMEVTHVSQLTWARHGESGSMAVFHQTQGPWYAESKRLEFVAARLGAELRNASLRMFGLRVEDEGNYTCQFVTFPQRSRSVDIWLRVL
notes: Homodimer; also called (PD-L2 IgV) (G4S)2 Fc (G4S)3 (CD155 IgV)
B6: PD-L2/CD155 Stack 3 (Fc fusion)
chain: WPPPGTGDVVVQAPTQVSGFLGDSVTLPCYLQVPNMEVTHVSQLTWARHGESGSMAVFHQTQGPWYAESKRLEFVAARLGAELRNASLRMFGLRVEDEGNYTCQFVTFPQRSRSVDIWLRVLGGGGSGGGGSGGGGSLFTVTVPKELYIIEQGSNVTLECNFDTGSHVNLGAITASLQKVENDASPHRERATLLEEQLPLGRALFHIPQVQVRDEGQYRCIIIYGDAWDYKYLTLKVKAGGGGSGGGGSEPKSSDKTHTCPPCPAPEAEGAPSVFLFPPKPKDTLMISRTPEVTCVVVDVSHEDPEVKFNWYVDGVEVHNAKTKPREEQYNSTYRVVSVLTVLHQDWLNGKEYKCKVSNKALPAPIEKTISKAKGQPREPQVYTLPPSRDELTKNQVSLTCLVKGFYPSDIAVEWESNGQPENNYKTTPPVLDSDGSFFLYSKLTVDKSRWQQGNVFSCSVMHEALHNHYTQKSLSLSPGK
notes: Homodimer; also called (CD155 IgV) (G4S)3 (PD-L2 IgV) (G4S)2 Fc
B7: PD-L2/CD155 Stack 5 (Fc fusion)
chain: EPKSSDKTHTCPPCPAPEAEGAPSVFLFPPKPKDTLMISRTPEVTCVVVDVSHEDPEVKFNWYVDGVEVHNAKTKPREEQYNSTYRVVSVLTVLHQDWLNGKEYKCKVSNKALPAPIEKTISKAKGQPREPQVYTLPPSRDELTKNQVSLTCLVKGFYPSDIAVEWESNGQPENNYKTTPPVLDSDGSFFLYSKLTVDKSRWQQGNVFSCSVMHEALHNHYTQKSLSLSPGKGGGGSGGGGSGGGGSWPPPGTGDVVVQAPTQVSGFLGDSVTLPCYLQVPNMEVTHVSQLTWARHGESGSMAVFHQTQGPWYAESKRLEFVAARLGAELRNASLRMFGLRVEDEGNYTCQFVTFPQRSRSVDIWLRVLGGGGSGGGGSGGGGSLFTVTVPKELYIIEQGSNVTLECNFDTGSHVNLGAITASLQKVENDASPHRERATLLEEQLPLGRALFHIPQVQVRDEGQYRCIIIYGDAWDYKYLTLKVKA
notes: Homodimer; also called Fc (G4S)3 (CD155 IgV) (G4S)3 (PD-L2 IgV)
B8: Wild Type CD155 full ECD Fc (Fc fusion)
chain: WPPPGTGDVVVQAPTQVPGFLGDSVTLPCYLQVPNMEVTHVSQLTWARHGESGSMAVFHQTQGPSYSESKRLEFVAARLGAELRNASLRMFGLRVEDEGNYTCLFVTFPQGSRSVDIWLRVLAKPQNTAEVQKVQLTGEPVPMARCVSTGGRPPAQITWHSDLGGMPNTSQVPGFLSGTVTVTSLWILVPSSQVDGKNVTCKVEHESFEKPQLLTVNLTVYYPPEVSISGYDNNWYLGQNEATLTCDARSNPEPTGYNWSTTMGPLPPFAVAQGAQLLIRPVDKPINTTLICNVTNALGARQAELTVQVKEGPPSEHSGISRN
notes: as for B1
B9: PD-L2 SIP with wildtype PD-L2 IgV (SEQ ID NO:115), Avitag and His tag (ligand)
chain: LFTVTVPKELYIIEHGSNVTLECNFDTGSHVNLGAITASLQKVENDTSPHRERATLLEEQLPLGKASFHIPQVQVRDEGQYQCIIIYGVAWDYKYLTLKVKAGLNDIFEAQKIEWHEHHHHHH
notes: also called PD-L2 secreted immunomodulatory protein
B10: PD-L2 SIP with variant PD-L2 IgV H15Q,T47A,K65R,S67L,Q82R,V89D (SEQ ID NO:328), Avitag and His tag (ligand)
chain: B9 chain with H15Q, T47A, K65R, S67L, Q82R, V89D
notes: also called variant PD-L2 SIP
B11: PD-L2 SIP with variant PD-L2 IgV H15Q,V31M,S67L,Q82R,V89D (SEQ ID NO:316), Avitag and His tag (ligand)
chain: B9 chain with H15Q, V31M, S67L, Q82R, V89D
notes: also called variant PD-L2 SIP
B12: PD-L2 SIP with variant PD-L2 IgV H15Q,T47A,S67L,R76G,Q82R,V89D (SEQ ID NO:342), Avitag and His tag (ligand)
chain: B9 chain with H15Q, T47A, S67L, R76G, Q82R, V89D
notes: also called variant PD-L2 SIP

The binders below were run against T1, human TIGIT expressed on cells … (assay: flow cytometry, Jurkat/TIGIT cells).

| Binder | MFI at 6.25 nM [MFI] |
| --- | --- |
| B1 | 46 |
| B2 | 19900 |
| B3 | 14500 |
| B4 | 9970 |
| B5 | 9100 |
| B6 | 22300 |
| B7 | 5490 |

Each binder was assayed against T2, human PD-1 expressed on cells (Jurkat/PD-1 cells) (human, UniProt Q15116 21-288) (assay: flow cytometry, Jurkat/PD-1 cells).
T2 construct: also called PDCD1
T2 sequence (Q15116 21-288): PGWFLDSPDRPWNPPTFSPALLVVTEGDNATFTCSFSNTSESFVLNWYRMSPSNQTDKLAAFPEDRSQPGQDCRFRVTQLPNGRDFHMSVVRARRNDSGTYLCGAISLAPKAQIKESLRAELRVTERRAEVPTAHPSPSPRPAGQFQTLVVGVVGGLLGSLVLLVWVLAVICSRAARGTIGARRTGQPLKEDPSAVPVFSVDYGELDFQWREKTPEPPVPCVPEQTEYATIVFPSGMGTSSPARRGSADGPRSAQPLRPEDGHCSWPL

| Binder | MFI at 6.25 nM [MFI] |
| --- | --- |
| B3 | 9220 |
| B4 | 66 |
| B5 | 16300 |
| B8 | 64 |
| B6 | 91 |
| B7 | 108 |

Each binder was assayed against T3, PD-1 stably expressed on Jurkat/IL-2 reporter cells (Jurkat/PD-1) (human, UniProt Q15116 21-288) (assay: culture supernatant on PD-1+ Jurkat cells, surface bound PD-L2 detected with anti-his-APC by flow cytometry).
T3 construct: also called Jurkat/PD-1 cells; PD-1+ Jurkat cells
T3 sequence (Q15116 21-288): as above

| Binder | binding result |
| --- | --- |
| B9 | binds |
| B10 | binds |
| B11 | binds |
| B12 | binds |
